The values below come from US20240327497A1.

Usually Kd stands for the concentration at which binding is half-saturated. A low value points to higher affinity. Usually koff stands for the first-order rate constant of dissociation. A lower koff goes with slow dissociation. Broadly, the kon is the rate constant with which the complex forms. The low end stands for slow association, the high end for fast association.

Several values for one entry are separate records, joined by “and”; a condition that tells them apart may be missing. Identical values can stand only once.

Assay [1] addresses canine FcRn (FcRn large subunit with canine beta-2-microglobulin) (canine). The assay can be described thus: SPR pH 5.5, SASA-Fc captured on BSA, FcRn 200 nM.
The target is the same in assay [2]. Briefly: SPR pH 5.5, SASA-Fc captured on BSA, FcRn 200 nM. This is another data set of the same source.
Assay [3] has the same target. Briefly: SPR pH 5.5, SASA-Fc captured on BSA, FcRn 200 nM. The source holds these as a separate data set.
The target is the same in assay [4]. The assay can be described thus: SPR pH 5.5, SASA-Fc captured on BSA, FcRn 200 nM. This is another data set of the same source.
The target is the same in assay [5]. Briefly: SPR pH 5.5, SASA-Fc captured on BSA, FcRn 100-800 nM.
Assay [6] has the same target. The assay can be described thus: SPR pH 5.5, SASA-Fc captured on BSA, FcRn 200 nM. This is another data set of the same source.
For assay [7] the target is unchanged. Briefly: SPR pH 5.5, SASA-Fc captured on BSA, FcRn 200 nM. The source holds these as a separate data set.
For assay [8] the target is unchanged. The assay can be described thus: SPR pH 5.5, SASA-Fc captured on BSA, FcRn 400 nM; average of 12 wild-type runs.
Assay [9] has the same target. The assay can be described thus: SPR pH 6.0, SASA-Fc captured on BSA, FcRn 200 nM.
Assay [10] shares this target. Briefly: SPR pH 5.5, SASA-Fc captured on BSA, FcRn 200 nM. This is another data set of the same source.
Assay [11] has the same target. Briefly: SPR pH 6.0, SASA-Fc captured on BSA, FcRn 100-800 nM.
Assay [12] shares this target. Briefly: SPR pH 5.5, SASA-Fc captured on BSA, FcRn 200 nM. This is another data set of the same source.
For assay [13] the target is unchanged. Briefly: SPR pH 5.5, SASA-Fc captured on BSA, FcRn 200 nM. The source holds these as a separate data set.
For assay [14] the target is unchanged. Briefly: SPR pH 6.0, IgG coupled to CM5, FcRn 200-3200 nM.
The target is the same in assay [15]. Briefly: SPR pH 5.9, IgG coupled to C1 chip, steady state fit.

B1: wild-type canine IgGB Fc (CH2-CH3) with N-terminal SASA tag (Fc fusion, part only; not given: SASA tag, not shown: another chain or arm of the molecule; small tags and cut ends)
Fc: APEMLGGPSVFIFPPKPKDTLLIARTPEVTCVVVDLDPEDPEVQISWFVDGKQMQTAKTQPREEQFNGTYRVVSVLPIGHQDWLKGKQFTCKVNNKALPSPIERTISKARGQAHQPSVYVLPPSREELSKNTVSLTCLIKDFFPPDIDVEWQSNGQQEPESKYRTTPPQLDEDGSYFLYSKLSVDKSRWQRGDTFICAVMHEALHNHYTQESLSHSPGK
For the molecule B1, the Kd in assay [1] is 2050 nM and 2990 nM; in assay [2], 502 nM and 784 nM; in assay [3], 1010 nM and 673 nM; in assay [4], 639 nM and 692 nM; in [5] it was 3150 nM; in assay [6] it was 8990 nM and 3110 nM. Also, the Kd in assay [7] was 1560 nM and 754 nM; in [8] it was 566 nM; in [9], 939 nM and 999 nM; in assay [10], 1710 nM and 2660 nM; in [11], 1820 nM; in assay [12], 884 nM and 862 nM. The Kd in assay [13] is 955 nM and 1310 nM. In addition, the koff was 0.31 s⁻¹ and 0.315 s⁻¹ in assay [1]; 0.169 s⁻¹ and 0.207 s⁻¹ in assay [2]; 0.195 s⁻¹ and 0.297 s⁻¹ in [3]; 0.17 s⁻¹ and 0.171 s⁻¹ in assay [4]; 0.527 s⁻¹ in [5]; 0.347 s⁻¹ and 0.354 s⁻¹ in assay [6]. Also, the koff was 0.179 s⁻¹ and 0.182 s⁻¹ in assay [7]; 0.14 s⁻¹ and 0.144 s⁻¹ in assay [9]; 0.288 s⁻¹ and 0.326 s⁻¹ in assay [10]; 0.417 s⁻¹ in assay [11]; 0.21 s⁻¹ and 0.218 s⁻¹ in assay [12]; 0.181 s⁻¹ and 0.209 s⁻¹ in assay [13]. Further, the kon in [1] was 151000 M⁻¹ s⁻¹ and 105000 M⁻¹ s⁻¹; in assay [2], 336000 M⁻¹ s⁻¹ and 264000 M⁻¹ s⁻¹; in [3] it was 194000 M⁻¹ s⁻¹ and 442000 M⁻¹ s⁻¹; in assay [4], 267000 M⁻¹ s⁻¹ and 247000 M⁻¹ s⁻¹; in assay [5], 168000 M⁻¹ s⁻¹; in assay [6] it was 38700 M⁻¹ s⁻¹ and 114000 M⁻¹ s⁻¹. Further, the on-rate (kon) was 115000 M⁻¹ s⁻¹ and 242000 M⁻¹ s⁻¹ in [7]; 149000 M⁻¹ s⁻¹ and 144000 M⁻¹ s⁻¹ in assay [9]; 168000 M⁻¹ s⁻¹ and 123000 M⁻¹ s⁻¹ in assay [10]; 230000 M⁻¹ s⁻¹ in assay [11]; 237000 M⁻¹ s⁻¹ and 253000 M⁻¹ s⁻¹ in assay [12]; 190000 M⁻¹ s⁻¹ and 159000 M⁻¹ s⁻¹ in assay [13].

B2: anti-NGF canine IgGB antibody with wild-type IgGB Fc (antibody, part only; not given: Anti-NGF variable domains, not shown: another chain or arm of the molecule; small tags and cut ends)
Fc: B1 Fc
Take B2: in assay [14], the equilibrium dissociation constant (Kd) came out at 3370 nM, the koff was determined as 0.385 s⁻¹ and the kon came out at 114000 M⁻¹ s⁻¹. The Kd in assay [15] was 951 nM.
